# According to the Human Domainome abundance scans (Beltran et al. 2025):
# ± gives the uncertainty stated by the source.
# B1: Homeobox protein cut-like 2, residues 895 to 963; numbered along this chain, O14529 (parent)
# chain: EVDTLELTRQVKEKLAKNGICQRIFGEKVLGLSQGSVSDMLSRPKPWSKLTQKGREPFIRMQLWLSDQL
# Variants of: B1
# Assay: abundance fitness (aPCA) (normalised: wild type 0, dead -1); higher = more abundant; growth selection in yeast, the domain comes from the species named
# Conditions: Homo sapiens
row,Variant,abundance fitness
1,R60K,0.15 ± 0.042
2,E1V,-0.213 ± 0.038
3,R55K,0.052 ± 0.047
4,K12D,-0.025 ± 0.11
5,L30K,-0.178 ± 0.038
6,L15T,-0.343 ± 0.32
7,Q62K,0.17 ± 0.073
8,G19E,-0.46 ± 0.092
9,L50D,-0.607 ± 0.11
10,R43M,-0.224 ± 0.047
11,L65G,-0.952 ± 0.14
12,P57Q,-0.036 ± 0.038
13,L15W,-0.338 ± 0.034
14,D67A,-0.207 ± 0.1
15,S66L,-0.104 ± 0.024
16,G54C,-0.007 ± 0.043
17,V37G,-0.206 ± 0.048
18,S66M,-0.085 ± 0.032
19,D39S,-0.073 ± 0.057
20,K53L,-0.101 ± 0.051
21,E1N,-0.067 ± 0.13
22,E27G,-0.072 ± 0.033
23,S42C,-0.004 ± 0.092
24,T8V,0.041 ± 0.032

row,Variant,abundance fitness
1,L30T,-0.536 ± 0.11
2,L7A,-0.125 ± 0.04
3,Q22M,-0.071 ± 0.046
4,T51W,-0.033 ± 0.12
5,D39Y,-0.324 ± 0.11
6,L7S,-0.041 ± 0.032
7,S38R,0.024 ± 0.028
8,K14P,-0.208 ± 0.091
9,K28C,-0.293 ± 0.055
10,T4G,-0.282 ± 0.035
11,Q10K,0.07 ± 0.036
12,W64P,-0.806 ± 0.05
13,R43V,-0.23 ± 0.037
14,C21Y,-0.41 ± 0.097
15,G35P,-0.077 ± 0.04
16,G31N,-0.121 ± 0.081
17,K45M,-0.053 ± 0.026
18,E27W,-0.091 ± 0.032
19,Q22W,-0.021 ± 0.042
20,K53D,-0.3 ± 0.12
21,E13C,-0.205 ± 0.091
22,P46V,-0.415 ± 0.29
23,I24L,0.033 ± 0.029
24,E1S,-0.063 ± 0.12

row,Variant,abundance fitness
1,Q22A,-0.098 ± 0.05
2,R43H,0.004 ± 0.048
3,Q34M,-0.06 ± 0.041
4,K17H,-0.382 ± 0.093
5,V37N,-0.435 ± 0.1
6,I59D,-0.535 ± 0.1
7,W47D,-0.772 ± 0.088
8,A16Q,-0.063 ± 0.044
9,S36H,-0.062 ± 0.036
10,P57H,-0.026 ± 0.041
11,E56T,-0.22 ± 0.046
12,V11F,-0.239 ± 0.062
13,R23P,-0.627 ± 0.051
14,M40I,0.007 ± 0.08
15,K45P,-0.073 ± 0.16
16,E1A,-0.122 ± 0.054
17,K53T,-0.166 ± 0.036
18,E56G,-0.245 ± 0.041
19,F58I,-0.596 ± 0.14
20,I24R,-0.093 ± 0.034
21,G26M,-0.153 ± 0.039
22,L63T,-0.003 ± 0.038
23,V29M,-0.104 ± 0.034
24,G35M,-0.098 ± 0.036

row,Variant,abundance fitness
1,G54K,-0.461 ± 0.062
2,F25W,-0.053 ± 0.042
3,V11G,-0.146 ± 0.029
4,V11C,-0.465 ± 0.083
5,R23V,-0.162 ± 0.03
6,G31L,-0.314 ± 0.036
7,Q10V,-0.164 ± 0.043
8,S33Y,-0.12 ± 0.047
9,G35A,-0.006 ± 0.045
10,E1D,-0.457 ± 0.093
11,S48V,-0.259 ± 0.035
12,L69S,-0.052 ± 0.043
13,R23K,0.047 ± 0.049
14,K45E,-0.173 ± 0.074
15,S36V,0.064 ± 0.035
16,Q22F,-0.182 ± 0.07
17,M61C,-0.292 ± 0.054
18,L63W,-0.271 ± 0.087
19,L65Q,-0.926 ± 0.07
20,L7H,-0.246 ± 0.073
21,K53V,-0.259 ± 0.082
22,N18C,-0.354 ± 0.091
23,R55A,-0.511 ± 0.039
24,L15K,0.029 ± 0.038

row,Variant,abundance fitness
1,K49Q,0.034 ± 0.034
2,E1Q,-0.278 ± 0.12
3,R23M,-0.207 ± 0.034
4,Q10F,-0.244 ± 0.04
5,R55H,-0.654 ± 0.078
6,R55V,-0.487 ± 0.031
7,V29I,0.124 ± 0.051
8,S42T,-0.169 ± 0.089
9,F58C,-0.845 ± 0.12
10,G35F,-0.079 ± 0.037
11,V29L,-0.108 ± 0.029
12,V29P,-0.345 ± 0.042
13,I59G,-0.315 ± 0.064
14,G19F,-0.226 ± 0.041
15,K28R,-0.1 ± 0.032
16,N18K,0.04 ± 0.037
17,K28Q,0.012 ± 0.033
18,E56V,-0.182 ± 0.049
19,P46F,0.039 ± 0.032
20,Q52C,-0.038 ± 0.08
21,F25N,-0.803 ± 0.17
22,G31R,-0.107 ± 0.038
23,L69Y,-0.096 ± 0.098
24,D3N,-0.001 ± 0.056

row,Variant,abundance fitness
1,L41T,-0.505 ± 0.035
2,Q68S,-0.097 ± 0.061
3,G19T,-0.332 ± 0.097
4,K17P,-0.411 ± 0.092
5,I59T,-0.049 ± 0.034
6,V29H,-0.394 ± 0.054
7,S38A,0.015 ± 0.028
8,V11I,-0.18 ± 0.092
9,L63V,-0.103 ± 0.06
10,K53P,-0.282 ± 0.034
11,Q10R,-0.038 ± 0.055
12,T4Q,-0.254 ± 0.033
13,S42Q,-0.092 ± 0.046
14,K49F,-0.281 ± 0.044
15,T8E,-0.242 ± 0.045
16,Q52V,-0.034 ± 0.041
17,L63I,-0.213 ± 0.059
18,S42G,-0.272 ± 0.28
19,R9N,-0.068 ± 0.065
20,K17M,-0.09 ± 0.039
21,N18D,-0.153 ± 0.081
22,V37T,0 ± 0.043
23,P46L,0.026 ± 0.032
24,S33V,-0.061 ± 0.034

row,Variant,abundance fitness
1,G26Q,-0.584 ± 0.12
2,S38T,0.006 ± 0.026
3,Q34I,0.005 ± 0.037
4,L30C,-0.234 ± 0.043
5,V29W,-0.113 ± 0.044
6,R55Q,-0.303 ± 0.042
7,Q68M,-0.022 ± 0.034
8,I24W,0.103 ± 0.034
9,R55N,-0.671 ± 0.088
10,L32F,-0.141 ± 0.028
11,L30F,-0.186 ± 0.038
12,K14Y,-0.045 ± 0.068
13,E13R,-0.101 ± 0.041
14,L63Y,-0.115 ± 0.049
15,Q22H,-0.239 ± 0.12
16,V29S,-0.325 ± 0.034
17,I59N,-0.117 ± 0.051
18,Q52P,0.01 ± 0.029
19,S48F,-0.19 ± 0.038
20,F58R,-0.906 ± 0.064
21,N18I,-0.101 ± 0.049
22,R43F,-0.101 ± 0.061
23,E27P,-0.106 ± 0.041
